Data reported in patent US20140315215A1 (SECRETARY OF STATE FOR HEALTH, published 2014).

Biological target: T1, hen egg lysozyme (hen, UniProt P00698 19-147)
T1 construct: Antigen immobilised on the microtitre plate in all ELISAs; also called HEL
Test: ELISA on immobilised HEL, tAK activity read-out; fusion extracted with glutathione and heat treated, compared with the BSA control
Procedure: FIG. 1 illustrates functional recovery of correctly folded single-domain antibody (VNAR) in the presence of the Sac tAK domain and glutathione. The fusion proteins were assessed for their ability to bind to hen egg lysozyme immobilized onto a microtitre plate in an ELISA format, using the tAK activity as the assay read-out. In each case background binding was measured using BSA as a non-relevant antigen control. In the case of Tma tAK fusions, no significant increase in binding was observed above the background binding to BSA with either glutathione extraction, heat treatment or a combination of the two.

T1 sequence (P00698 19-147): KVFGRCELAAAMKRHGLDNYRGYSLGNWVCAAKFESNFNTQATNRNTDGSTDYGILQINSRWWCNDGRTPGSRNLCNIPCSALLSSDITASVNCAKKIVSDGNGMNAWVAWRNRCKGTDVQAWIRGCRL

fold increase in binding: ~10 fold
B1: SacAK-F3-VNAR fusion protein (Sulfolobus acidocaldarius adenylate kinase, [GGGGS]3 flexible linker F3, hen egg lysozyme specific shark VNAR) (VNAR)
chain: MLATALKLGYAKDRDEMRKLSVEKQKKLQIDAAKGIAEEARAGGEGYLFIDTHAVIRTPSGYLPGLPSYVITEINPSVIFLLEADPKIILSRQKRDTTRNRNDYSDESVILETINFARYAATASAVLAGSTVKVIVNVEGDPSIAANEIIRSMKQSTGGGGSGGGGSGGGGSGSARVDQTPRSVTKETGESLTINCVLRDASYALGSTCWYRKKSGSTNEESISKGGRYVETVNSGSKSFSLRINDLTVEDGGTYRCGLGVAGGYCDYALCSSRYAECGDGTAVTVN
notes: also called Sac tAK fusions; the fusion
